Measured values reported in patent publication US20250340654A1 (INTERVET, published 2025).
Substitutions are numbered along the chain they refer to.

T1: Canine IL-31RA ECD-10His (canine, biotin-labeled in the Octet assay (site not stated))
T1 construct: The ELISA and Octet protocols say only 'IL-31RA' or 'canine IL-31RA'; also called cIL-31RA; canine IL-31 receptor alpha extracellular domain, HIS-tagged
T1 chain: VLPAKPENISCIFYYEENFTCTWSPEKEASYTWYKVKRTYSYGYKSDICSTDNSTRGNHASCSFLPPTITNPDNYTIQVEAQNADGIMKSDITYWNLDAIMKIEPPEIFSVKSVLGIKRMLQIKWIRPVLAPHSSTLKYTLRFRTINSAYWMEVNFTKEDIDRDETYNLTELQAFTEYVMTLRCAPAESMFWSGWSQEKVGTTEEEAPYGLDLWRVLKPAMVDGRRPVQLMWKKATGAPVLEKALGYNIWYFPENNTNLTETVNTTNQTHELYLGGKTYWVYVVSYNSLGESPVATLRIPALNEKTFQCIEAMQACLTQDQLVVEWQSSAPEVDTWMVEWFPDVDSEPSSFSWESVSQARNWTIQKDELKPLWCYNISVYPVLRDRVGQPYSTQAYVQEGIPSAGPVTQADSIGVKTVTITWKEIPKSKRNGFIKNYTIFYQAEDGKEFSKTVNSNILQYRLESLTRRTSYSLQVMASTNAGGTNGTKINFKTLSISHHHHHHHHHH

B1: Chimeric 218D9 (antibody, V domains shown)
VH: QVTLKESGPGILQPSQTLSLTCSFSGFSLSTFGRGVGWIRQPSGKGLDWLTHIWWDDDKYYNPALKSRLTISKDTSKNQVFLKIANVDTADTATYYCARIAGGLRRAPYAMDSWGQGTSVTVSS
VL: DIQMTQSPASLSVSVGETVTITCRASENIYSSLAWYQQKQGKSPQLLVYAATNLADGVPSRFSGSGSGTQYSLKINSLQSEDSGNYYCQHFRDTPPTFGGGTKLEIK
notes: canine constant regions not specified; also called mouse-canine chimeric 218D9 antibody
B2: c218D9VH3VL2 (antibody, V domains shown)
VH: EVTLQESGPGLVKPSQTLSLTCSFSGFSLSTFGRGVGWIRQRPGRGLEWMGHIWWDDDKYYNPALKSRLSITKDTAKNQFSLQLSSMTTEDTAVYYCARIAGGLRRAPYAMDSWGQGTLVTVSS
VL: DIVMTQTPLSLSVSPGETASISCRASENIYSSLAWFRQKPGQSPQLLIYAATNLADGVPDRFSGSGSGTDFTLRISRVEADDTGVYYCQHFRDTPPTFGQGTKLEIKR
notes: Caninized antibody; chains tied by name to c218D9VH3-cIgGBm and c218D9VL2-cCK; also called c218D9VH3L2
B3: c218D9VH3VL3 (antibody, V domains shown)
VH: B2 VH
VL: B2 VL with I48V, F71Y
notes: Caninized antibody; chains tied by name to c218D9VH3-cIgGBm and c218D9VL3-cCK; also called c218D9VH3L3
B4: c218D9VH4VL2 (antibody, V domains shown)
VH: B2 VH with F80V, S81F
VL: B2 VL
notes: Caninized antibody; chains tied by name to c218D9VH4-cIgGBm and c218D9VL2-cCK; also called c218D9VH4L2
B5: c218D9VH4VL3 (antibody, V domains shown)
VH: B2 VH with F80V, S81F
VL: B2 VL with I48V, F71Y
notes: Caninized antibody; chains tied by name to c218D9VH4-cIgGBm and c218D9VL3-cCK; also called c218D9VH4L3
B6: 209G5 (antibody, V domains shown)
VH: EVQLQQSVAELVRPGASVKLSCTASGFNIKNTYMHWVKERPEQGLEWIGRIDPANGNSKYAPKFQGKATITTDTSSNTAYLQLSSLTSEDTAIYYCARYYYVSSHFDVWGTGTTVTVSS
VL: SIVMTQTPKFLLVSAGDRVTITCKASQSVTNDVTWYQQKPGQSPKLLIYYASNRYTGVPDRFTGSGYGTDFTFTISTVQAEDLAVYFCQQDYSSPFTFGSGTKLEIK
notes: Mouse monoclonal antibody from a hybridoma; also called mouse mAb 209G5
B7: 218D9 (antibody, V domains shown)
VH: B1 VH
VL: B1 VL
notes: Mouse monoclonal antibody from a hybridoma; also called mouse mAb 218D9
B8: c51F8VH4VL7 (antibody, V domains shown)
VH: EVQLVQSGAEVVKPGASVKVSCTASGFNIKNTFIHWVRQRPGAGLDWIGRIDPANGNTKYAPKFQGRATLTADTSTNTAYMQLSSLRAGDIAVYYCARYYYVSSYFDVWGTGTLVTVSS
VL: DIVMTQTPLSLSVSPGETASISCKASQSVTNDVTWFRQKPGQSPKLLIYSASNRYTGVPDRFSGSGSGTDFTLRISTVEADDTGVYYCQQDYSSPWTFGQGTKLEIKR
notes: Caninized antibody; chains tied by name to c51F8VH4-cIgGBm and c51F8VL7-cCK; also called c51F8VH4L7
B9: 85C10 (antibody, V domains shown)
VH: EFQLQQSGPELVKPGASVKISCKASGYSFTDYSINWVKQSNGKSLEWIGVINPNYGTSSHNQKFKGKATMTVDQSSSTAYMQLNSLTSEDSAVYYCARALDDYYFYWYFDVWGIGTTVTVSS
VL: DVVMTQTPLSLPVSLGDQASISCRSSQSLVHTNGNTYLHWYLQKPGQSPKLLIYKVSNRFSGVPDRFSGSGSGTDFTLKISRVEAEDLGVYFCSQTTHVPLTFGAGTKLELK
notes: Mouse monoclonal antibody from a hybridoma; also called mouse mAb 85C10
B10: 224G3 (antibody, V domains shown)
VH: EVQLVESGGDLVKPGGSLKLSCAASGFTFSSYGMSWVRQTPDKRLEWVATISNGGSYTYYPDSVKGRFTISRDNAKNTLYMQMSSLKSEDTAMYYCARNEPPDYWGQGTSVTVSS
VL: QIVLTQSPAIMSASLGERVTMTCTASSSVGSSYLHWYQQKPGSSPKLWIYDTSNLASGVPVRFSGSGSGTSYSLTISSMEAEDAATYYCHQYHRSPYTFGGGTKLEIK
notes: Mouse monoclonal antibody from a hybridoma; also called mouse mAb 224G3

How the values were obtained:
[1] = target: T1, Canine IL-31RA ECD-10His; test: BLI (Octet), biotin-labeled canine IL-31RA on SA biosensors
Protocol: (§1) All kinetics measurements were performed by Octet HTX using SA biosensors and Data Acquisition 12.0 software. A biotin-labeled antigen (canine IL-31RA) was loaded onto the pre-rehydrated SA biosensors for 120s at a concentration of 1 μg/mL. Next, the biosensors were placed into Octet Kinetics Buffer (PBS+0.02% Tween 20, 0.1% BSA) for the blocking phase for 120s. Then, for the association phase, antigen loaded biosensors were placed into 2-fold serial dilutions from 100 nM down to 3.13 nM of anti-IL-31RA monoclonal antibody in Octet Kinetics Buffer for 300s. The last well was buffer alone and that sensor was used for reference sensor subtraction. Finally, the biosensors were placed into Octet Kinetics Buffer for the dissociation phase for 300s. Analysis was performed using Data Analysis 12.0 software and curves were fitted using a 1:1 binding model.
Two of the top blocking antibodies: 51F8 and 218D9, had KDs of about 0.2 nM and about 0.07 nM respectively (see, Table 5B below).

[2] = target: T2, canine IL-31 receptor complex (IL-31RA and OSMR) on Ba/f3-OI cells (canine); test: cell-based or functional assay
[3] = target: T1, Canine IL-31RA ECD-10His; test: ELISA on coated canine IL-31RA, anti-canine IgG Fc-HRP (Example 11), the unit is that of the x axis 'Ab Log Conc. (ng/mL)'
Protocol: 1. Coat 200 ng/well of IL-31RA on an immunoplate and incubate the plate at 4° C. overnight. [0257] 2. Wash the plate 3 times with phosphate buffered saline (PBS) containing 0.05% Tween 20 (PBST). […] 3. Block the plate with 0.5% bovine serum albumin (BSA) in PBS for 45-60 min at room temperature. [0259] 4. Wash the plate 3 times with PBST. [0260] 5. Three-fold dilute the caninized antibody in each column or row of dilution plate starting at 0.3 μg/mL. [0261] 6. Transfer the diluted caninized antibody into each column or row of the immunoplate, and incubate the plate for 45-60 min at room temperature. [0262] 7. Wash the plate 3 times with PBST. [0263] 8. Add 1:4000 diluted horseradish peroxidase labeled anti-canine IgG Fc into each well of the plate, and then incubate the plate for 45-60 min at room temperature. [0264] 9. Wash the plate 3 times with PBST. [0265] 10. Add 3,3′,5,5′-tetramethylbenzidine (TMB) Substrate into each well of the plate, and incubate the plate for 10 to 15 min at room temperature to develop the color. [0266] 11. Add 100 μL 1.5 M phosphoric acid into each well to stop the reaction. Read plate at 450 nm with 540 nm reference wavelength.
As depicted in FIGS. 7A-7E, the caninized antibodies were tested for their reactivity to canine IL-31RA.

[4] = target: T2, canine IL-31 receptor complex (IL-31RA …); test: cell-based or functional assay; remark: listed apart in the source
[5] = target: T2, canine IL-31 receptor complex (IL-31RA …); test: cell-based or functional assay; remark: listed apart in the source
[6] = target: T1, Canine IL-31RA ECD-10His; test: BLI (Octet HTX), biotin-labeled canine IL-31RA on SA biosensors, 1:1 fit
Protocol: These constants reflect the binding affinity of the individual monoclonal antibodies for canine IL-31 RA.
as §1

[7] = target: T1, Canine IL-31RA ECD-10His; test: BLI (Octet); end of the range tied to 85C10 by Table 2
Protocol: as §1

[8] = target: T1, Canine IL-31RA ECD-10His; test: BLI (Octet); end of the range tied to 224G3 by Table 2
Protocol: as §1

Kd [1] [nM]	koff [1] [s⁻¹]	kon [1] [M⁻¹ s⁻¹]	IC50, inhibition of IL-31 mediated STAT-3 phosphorylation in Ba/f3-OI cells [2] [nM]	EC50 [3] [ng/mL]	IC50: inhibition of IL-31 mediated STAT-3 phosphorylation in Ba/f3-OI cells (AlphaLISA p-STAT3), the unit is that of the x axis 'Antibody Log Conc. (nM)' [4] [nM]	IC50 (read off the curve): inhibition of IL-31 mediated STAT-3 phosphorylation in Ba/f3-OI cells [5] [ng/mL]	Kd [6] [nM]	koff [6] [s⁻¹]	kon [6] [M⁻¹ s⁻¹]	Kd [7] [nM]	Kd [8] [nM]	Binder
0.0698	4.63e-05	664000	~2.2	3.15	2.24							B1
0.528	0.000338	641000	~230	4.29	226							B2
0.0416	2.75e-05	661000	~2.5	3.22	2.97							B3
0.305	0.000165	541000	~8.3	4.1	8.27							B4
0.0447	2.69e-05	601000	~2.9	3.58	2.5							B5
						~2000	0.131	4.87e-05	370000			B6
						~2000	0.0698	4.63e-05	664000			B7
1.23	0.000512	416000		11.3								B8
							0.851	0.000363	427000	0.85		B9
							0.000964	1.08e-06	1.12e+06		0.001	B10
